# Ends that are not written are not given here.
# Molecular target: T1, RXFP1 on RXFP1 CRE-Bla cells (human, UniProt Q9HBX9 1-757)
# T1 sequence (looked up): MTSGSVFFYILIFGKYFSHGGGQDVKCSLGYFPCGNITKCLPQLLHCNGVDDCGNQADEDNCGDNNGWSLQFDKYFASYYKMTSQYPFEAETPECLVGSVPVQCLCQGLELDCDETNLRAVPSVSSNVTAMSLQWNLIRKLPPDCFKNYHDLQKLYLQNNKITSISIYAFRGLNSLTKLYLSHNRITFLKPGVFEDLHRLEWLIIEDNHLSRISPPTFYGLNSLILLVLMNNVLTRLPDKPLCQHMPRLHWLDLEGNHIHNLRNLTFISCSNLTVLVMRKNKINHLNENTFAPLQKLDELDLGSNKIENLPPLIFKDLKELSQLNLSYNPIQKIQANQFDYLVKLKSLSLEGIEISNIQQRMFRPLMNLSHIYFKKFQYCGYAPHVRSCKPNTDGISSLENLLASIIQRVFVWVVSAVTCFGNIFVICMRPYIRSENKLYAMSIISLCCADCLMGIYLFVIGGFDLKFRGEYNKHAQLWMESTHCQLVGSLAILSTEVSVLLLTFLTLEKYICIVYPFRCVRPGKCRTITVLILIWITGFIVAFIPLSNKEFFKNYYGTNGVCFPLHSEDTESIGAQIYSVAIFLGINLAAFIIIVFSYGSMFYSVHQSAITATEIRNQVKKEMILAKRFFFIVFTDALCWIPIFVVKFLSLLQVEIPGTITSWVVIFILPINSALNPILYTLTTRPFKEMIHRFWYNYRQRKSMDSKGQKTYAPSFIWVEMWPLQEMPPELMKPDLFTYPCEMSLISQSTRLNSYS
# Assay: cell-based or functional assay
binder,measurement,value
"relaxin-H2 protein (R&D Systems) (ligand, disulfide (positions not given here); ends not checked; also: three disulfides: two between A and B chains, one within A chain, pairings not given here) chain 1: QLYSALANKCCHVGCTKRSLARFC chain 2: DSWMEEVIKLCGRELVRAQIAICGMSTWS","EC50, in vitro FRET assay, RXFP1 CRE-Bla cells",4.9 nM
